Blank lines part the entries; values can stand above or below the binder they belong to.
Assays:
[1] = biological target: T1, CD73 on cell membrane surface (MDA-MB-231, U87-MG) (human, UniProt P21589 27-549); test: flow cytometry, MDA-MB-231 cells; antibody 1.23 nM
T1 construct: whole, on cells; also called NT5E
T1 sequence (looked up): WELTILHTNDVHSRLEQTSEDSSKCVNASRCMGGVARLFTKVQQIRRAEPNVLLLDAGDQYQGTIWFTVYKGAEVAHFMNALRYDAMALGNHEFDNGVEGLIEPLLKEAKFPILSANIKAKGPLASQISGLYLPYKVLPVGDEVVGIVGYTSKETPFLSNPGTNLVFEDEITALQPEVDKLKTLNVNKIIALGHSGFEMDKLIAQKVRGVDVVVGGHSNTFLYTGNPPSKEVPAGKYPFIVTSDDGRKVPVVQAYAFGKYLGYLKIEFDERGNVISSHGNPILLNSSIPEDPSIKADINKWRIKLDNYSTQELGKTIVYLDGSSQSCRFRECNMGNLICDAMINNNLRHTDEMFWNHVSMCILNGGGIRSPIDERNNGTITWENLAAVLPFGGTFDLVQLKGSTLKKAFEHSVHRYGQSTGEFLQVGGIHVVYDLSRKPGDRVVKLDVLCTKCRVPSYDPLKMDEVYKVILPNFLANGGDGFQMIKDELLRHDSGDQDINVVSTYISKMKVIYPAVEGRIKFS
Protocol: (§1) MDA-MB-231 cells in logarithmic phase were digested with conventional trypsin and transferred to a 1.5 mL centrifuge tube at 3×10⁵ cells/tube. 500 μL of PBSA was added, and the mixture was centrifuged at 5600 rpm for 5 min to remove the supernatant. […] The system was mixed gently and uniformly, and then was incubated on ice for 1 h. Then 500 μL of PBSA was added, and the mixture was centrifuged at 5600 rpm for 5 min to remove the supernatant. […] 500 μL of PBSA was added, and the mixture was centrifuged at 5600 rpm for 5 min to remove the supernatant. At last, 200 μL of PBSA was added to resuspend cell precipitates, and the mixture was transferred to a flow tube for FACSCalibur detection.

[2] = biological target: T1, CD73 on cell membrane surface …; test: flow cytometry, MDA-MB-231 cells
Protocol: as §1

[3] = biological target: T1, CD73 on cell membrane surface …; test: flow cytometry, MDA-MB-231 cells; antibody 33.33 nM
Protocol: as §1

[4] = biological target: T1, CD73 on cell membrane surface …; test: flow cytometry, MDA-MB-231 cells; antibody 0.05 nM
Protocol: as §1

[5] = biological target: T1, CD73 on cell membrane surface …; test: flow cytometry, MDA-MB-231 cells; antibody 100.00 nM
Protocol: as §1

[6] = biological target: T1, CD73 on cell membrane surface …; test: flow cytometry, MDA-MB-231 cells; antibody 3.70 nM
Protocol: as §1

[7] = biological target: T1, CD73 on cell membrane surface …; test: flow cytometry, MDA-MB-231 cells; antibody 0.14 nM
Protocol: as §1

[8] = biological target: T1, CD73 on cell membrane surface …; test: flow cytometry, MDA-MB-231 cells; antibody 0.41 nM
Protocol: as §1

[9] = biological target: T1, CD73 on cell membrane surface …; test: flow cytometry, MDA-MB-231 cells; antibody 11.11 nM
Protocol: as §1

[10] = biological target: T1, CD73 on cell membrane surface …; test: cell-based or functional assay
PD-1-mFc [11] = biological target: T2, PD-1-mFc (human, UniProt Q15116 25-170, limits assumed); test: ELISA, PD-1-mFc coated; antibody 1 ug/mL diluted 1:27
T2 construct: also called human PD-1-mFc
T2 sequence (Q15116 other isoform, or with tags, fused parts or gaps limits assumed): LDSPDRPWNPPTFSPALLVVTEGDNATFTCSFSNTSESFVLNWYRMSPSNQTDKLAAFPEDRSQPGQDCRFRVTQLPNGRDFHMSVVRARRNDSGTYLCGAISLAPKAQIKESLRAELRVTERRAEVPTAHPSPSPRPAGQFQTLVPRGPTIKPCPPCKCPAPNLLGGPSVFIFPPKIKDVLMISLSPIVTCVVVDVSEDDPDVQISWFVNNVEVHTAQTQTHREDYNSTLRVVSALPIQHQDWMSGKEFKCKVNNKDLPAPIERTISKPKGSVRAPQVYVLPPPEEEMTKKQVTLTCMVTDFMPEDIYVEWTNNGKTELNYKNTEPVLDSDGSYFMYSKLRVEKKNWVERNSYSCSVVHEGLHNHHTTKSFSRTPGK
Protocol: (§2) A microplate was coated with PD-1-mFc at 0.5 μg/mL and incubated at 4° C. overnight. Then the microplate coated with antigens was washed once with PBST, and then blocked with a PBS solution containing 1% BSA as blocking solution at 37° C. for 2 h. After blocking, the microplate was washed 3 times with PBST. The microplate containing the test antibodies was incubated at 37° C. for 30 min, and then washed 3 times with PBST. […] After incubation, the plate was washed 4 times with PBST, TMB (Neogen, 308177) was added in the dark for chromogenesis for 5 min, and then a stop solution was added to terminate chromogenic reaction. The microplate was put into a microplate reader immediately, and the OD value of each well in the microplate was read at 450 nm. The data were analyzed and processed by SoftMax Pro 6.2.1,

[12] = biological target: T3, PD-1 on 293T-PD1 cell surface (human, UniProt Q15116 25-288); test: flow cytometry, 293T-PD1 cells; antibody 1.23 nM
T3 construct: whole, on cells
T3 sequence (Q15116 25-288): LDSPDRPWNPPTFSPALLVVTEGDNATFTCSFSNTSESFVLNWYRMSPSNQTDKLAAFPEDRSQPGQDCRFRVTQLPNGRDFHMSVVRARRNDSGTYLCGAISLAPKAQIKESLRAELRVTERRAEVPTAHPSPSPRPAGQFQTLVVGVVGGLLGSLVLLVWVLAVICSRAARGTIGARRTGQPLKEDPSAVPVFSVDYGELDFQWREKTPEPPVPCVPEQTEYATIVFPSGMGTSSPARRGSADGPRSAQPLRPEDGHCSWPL
Protocol: as §1, with “500” for “MDA-MB-231 cells in logarithmic phase were digested with conventional trypsin and transferred to a 1.5 mL centrifuge tube at 3×10⁵ cells/tube. 500”

[13] = biological target: T3, PD-1 on 293T-PD1 cell surface; test: flow cytometry, 293T-PD1 cells; antibody 3.70 nM
Protocol: as §1, with “500” for “MDA-MB-231 cells in logarithmic phase were digested with conventional trypsin and transferred to a 1.5 mL centrifuge tube at 3×10⁵ cells/tube. 500”

[14] = biological target: T3, PD-1 on 293T-PD1 cell surface; test: flow cytometry, 293T-PD1 cells; antibody 100.00 nM
Protocol: as §1, with “500” for “MDA-MB-231 cells in logarithmic phase were digested with conventional trypsin and transferred to a 1.5 mL centrifuge tube at 3×10⁵ cells/tube. 500”

[15] = biological target: T3, PD-1 on 293T-PD1 cell surface; test: flow cytometry, 293T-PD1 cells; antibody 0.41 nM
Protocol: as §1, with “500” for “MDA-MB-231 cells in logarithmic phase were digested with conventional trypsin and transferred to a 1.5 mL centrifuge tube at 3×10⁵ cells/tube. 500”

human NT5E-Biotin = biological target: T4, human NT5E-Biotin (human, UniProt P21589 27-552, limits assumed, biotin label, site not stated); test: ELISA, NT5E-biotin on streptavidin
T4 construct: Captured on streptavidin-coated plates; also called human NTSE-Biotin
T4 sequence (looked up): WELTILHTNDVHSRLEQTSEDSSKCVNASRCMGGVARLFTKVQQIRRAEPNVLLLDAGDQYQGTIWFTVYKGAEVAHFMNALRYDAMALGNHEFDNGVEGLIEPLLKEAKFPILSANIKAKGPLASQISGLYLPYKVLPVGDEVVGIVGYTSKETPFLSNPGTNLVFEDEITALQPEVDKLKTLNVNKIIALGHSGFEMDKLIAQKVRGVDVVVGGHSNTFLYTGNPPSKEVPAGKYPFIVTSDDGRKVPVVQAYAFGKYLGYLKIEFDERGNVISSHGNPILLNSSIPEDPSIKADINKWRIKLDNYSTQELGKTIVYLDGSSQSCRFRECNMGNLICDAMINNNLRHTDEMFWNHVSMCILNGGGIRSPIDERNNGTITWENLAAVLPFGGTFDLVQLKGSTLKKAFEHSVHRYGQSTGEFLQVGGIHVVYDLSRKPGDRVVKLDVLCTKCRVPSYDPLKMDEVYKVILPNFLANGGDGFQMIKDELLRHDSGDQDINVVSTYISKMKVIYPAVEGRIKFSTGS
Protocol: A microplate was coated with streptavidin at 2 μg/mL and then incubated at 4° C. overnight. After incubation, the microplate coated with streptavidin was washed once with PBST, and blocked with a PBS solution containing 1% BSA as a microplate blocking solution at 37° C. for 2 h. After blocking, the microplate was washed 3 times with PBST. Then, 0.5 μg/mL antigen human NTSE-Biotin was added and incubated at 37° C. for 30 min. Then, the plate was washed 3 times with PBST. The antibodies serially diluted with PBST solution (the dilution gradients for the antibody are shown in Table 3) were added to wells of the microplate. The microplate containing the test antibodies was incubated at 37° C. for 30 min, and then washed 3 times with PBST. […] After incubation, the plate was washed 4 times with PBST, TMB (Neogen, 308177) was added in the dark for chromogenesis for 5 min, and then a stop solution was added to terminate chromogenic reaction. The microplate was put into a microplate reader immediately, and the OD value of each well in the microplate was read at 450 nm. The data were analyzed and processed by SoftMax Pro 6.2.1.

[16] = biological target: T3, PD-1 on 293T-PD1 cell surface; test: flow cytometry, 293T-PD1 cells; antibody 0.05 nM
Protocol: as §1, with “500” for “MDA-MB-231 cells in logarithmic phase were digested with conventional trypsin and transferred to a 1.5 mL centrifuge tube at 3×10⁵ cells/tube. 500”

[17] = biological target: T3, PD-1 on 293T-PD1 cell surface; test: flow cytometry, 293T-PD1 cells; antibody 0.14 nM
Protocol: as §1, with “500” for “MDA-MB-231 cells in logarithmic phase were digested with conventional trypsin and transferred to a 1.5 mL centrifuge tube at 3×10⁵ cells/tube. 500”

PD-1-mFc [18] = biological target: T2, PD-1-mFc; test: ELISA, PD-1-mFc coated
Protocol: as §2

[19] = biological target: T3, PD-1 on 293T-PD1 cell surface; test: flow cytometry, 293T-PD1 cells
Protocol: as §1, with “500” for “MDA-MB-231 cells in logarithmic phase were digested with conventional trypsin and transferred to a 1.5 mL centrifuge tube at 3×10⁵ cells/tube. 500”

[20] = biological target: T3, PD-1 on 293T-PD1 cell surface; test: flow cytometry, 293T-PD1 cells; antibody 33.33 nM
Protocol: as §1, with “500” for “MDA-MB-231 cells in logarithmic phase were digested with conventional trypsin and transferred to a 1.5 mL centrifuge tube at 3×10⁵ cells/tube. 500”

human PD-1-mFc-biotin = human PD-1-mFc-biotin (human, UniProt Q15116 25-170, limits assumed, biotin label, site not stated); test: competitive ELISA, blocking of PD-1-mFc-biotin binding to coated PD-L1-mFc
Chain of human PD-1-mFc-biotin (Q15116 other isoform, or with tags, fused parts or gaps limits assumed): as the sequence (Q15116 other isoform, or with tags, fused parts or gaps limits assumed) above
Protocol: After incubation, the microplate was blocked with a PBS solution containing 1% BSA at 37° C. for 2 h. After blocking, the plate was washed three times and dried. The antibody was serially diluted to 7 concentrations in a gradient ratio of 1:3 on a dilution plate with 10 μg/mL as the starting concentration, and a blank control was set. […] Then the mixture after reaction was added to the coated microplate, and the microplate was incubated for at 37° C. for 30 min. After incubation, the plate was washed three times with PBST and dried. SA-HRP (KPL, 14-30-00) working solution was added, and the plate was incubated at 37° C. for 30 min. After incubation, the plate was washed four times and patted dry. Then TMB (Neogen, 308177) was added in the dark for chromogenesis for 5 min, and a stop solution was added to terminate chromogenic reaction. Then the microplate was put into a microplate reader immediately, and the OD value of each well in the microplate was read at 450 nm. The data were analyzed and processed by SoftMax Pro 6.2.1.

[21] = biological target: T3, PD-1 on 293T-PD1 cell surface; test: flow cytometry, 293T-PD1 cells; antibody 11.11 nM
Protocol: as §1, with “500” for “MDA-MB-231 cells in logarithmic phase were digested with conventional trypsin and transferred to a 1.5 mL centrifuge tube at 3×10⁵ cells/tube. 500”

FACS signal [1]: 389
EC50 [2]: 1590 pM
FACS signal [3]: 930
FACS signal [4]: 32.6
FACS signal [5]: 878
FACS signal [6]: 698
FACS signal [7]: 64.4
FACS signal [8]: 158
FACS signal [9]: 829
IC50 (nM), inhibition of enzyme activity of CD73 on U87-MG cell membrane surface [10]: 0.119 nM
B1: MEDI9447 (antibody, V domains shown)
VH: EVQLLESGGGLVQPGGSLRLSCAASGFTFSSYAYSWVRQAPGKGLEWVSAISGSGGRTYYADSVKGRFTISRDNSKNTLYLQMNSLRAEDTAVYYCARLGYGRVDEWGRGTLVTVSS
VL: QSVLTQPPSASGTPGQRVTISCSGSLSNIGRNPVNWYQQLPGTAPKLLIYLDNLRLSGVPDRFSGSKSGTSASLAISGLQSEDEADYYCATWDDSHPGWTFGGGTKLTVLG

OD450 (PD-1-mFc [11]): 1.66 OD
FACS signal [12]: 289
FACS signal [13]: 467
FACS signal [14]: 361
FACS signal [15]: 113
EC50 (human NT5E-Biotin): 439 pM
FACS signal [16]: 24.8
FACS signal [17]: 52.4
EC50 (PD-1-mFc [18]): 89 pM
EC50 [19]: 1570 pM
FACS signal [20]: 400
EC50 (human PD-1-mFc-biotin): 1340 pM
FACS signal [21]: 1280
B2: P1D7V04R (bispecific antibody, human IgG1, kappa)
heavy: not shown
light: DIQMTQSPSSMSASVGDRVTFTCRASQDINTYLSWFQQKPGKSPKTLIYRANRLVSGVPSRFSGSGSGQDYTLTISSLQPEDMATYYCLQYDEFPLTFGAGTKLELKRTVAAPSVFIFPPSDEQLKSGTASVVCLLNNFYPREAKVQWKVDNALQSGNSQESVTEQDSKDSTYSLSSTLTLSKADYEKHKVYACEVTHQGLSSPVTKSFNRGEC
notes: Morrison form IgG-scFv
